The results in this text go back to article PMC3250504, “Identification and Characterization of a Mef2 Transcriptional Activator in Schistosome Parasites”.

The target in series [1] is T1, MBP-SmMef2 (Schistosoma mansoni, UniProt G8JE45 1-730).
T1 sequence: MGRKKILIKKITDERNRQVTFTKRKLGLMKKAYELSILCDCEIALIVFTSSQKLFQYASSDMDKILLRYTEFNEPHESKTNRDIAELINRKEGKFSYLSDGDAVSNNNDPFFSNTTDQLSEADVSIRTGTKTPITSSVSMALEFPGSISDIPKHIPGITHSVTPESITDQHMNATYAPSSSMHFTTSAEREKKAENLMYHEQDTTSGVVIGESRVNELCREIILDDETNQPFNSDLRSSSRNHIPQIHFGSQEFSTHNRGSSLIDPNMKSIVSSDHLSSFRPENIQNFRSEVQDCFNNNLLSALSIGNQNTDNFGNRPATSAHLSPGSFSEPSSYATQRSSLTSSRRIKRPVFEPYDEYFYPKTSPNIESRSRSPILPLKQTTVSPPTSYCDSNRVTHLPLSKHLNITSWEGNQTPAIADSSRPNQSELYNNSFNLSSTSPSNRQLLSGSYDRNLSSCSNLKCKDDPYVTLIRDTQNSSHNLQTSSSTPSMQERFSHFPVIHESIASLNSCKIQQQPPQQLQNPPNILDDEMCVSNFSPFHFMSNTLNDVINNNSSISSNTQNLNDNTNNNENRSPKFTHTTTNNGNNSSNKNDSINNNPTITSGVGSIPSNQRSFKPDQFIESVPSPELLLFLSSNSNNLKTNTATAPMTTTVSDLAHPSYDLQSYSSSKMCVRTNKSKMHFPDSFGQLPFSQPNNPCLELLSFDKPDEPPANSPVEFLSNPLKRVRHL
Put plainly: EMSA; 5 mM MgCl2, poly(dI-dC); LightShift kit 1x binding buffer, 2.5% glycerol, 5 mM MgCl2, 50 ng/uL poly(dI-dC), 0.05% NP-40, 180 fmol hot dsDNA, 1.4 ug protein, 20 min room temperature; 5%. The settings on record: protein: recombinant; tags: N-terminal MBP (pMAL-c5x); chain copies: 2; label: 5' biotin on forward strand (hot); blunt. For orientation: In EMSA bound probe runs differently from free probe, usually more slowly.

Series [2] concerns the target T1, MBP-SmMef2. Put plainly: competition; 200x cold vs labeled AT12 or AT13; LightShift kit 1x binding buffer, 2.5% glycerol, 5 mM MgCl2, 50 ng/uL poly(dI-dC), 0.05% NP-40, 180 fmol hot dsDNA, 1.4 ug protein, 20 min room temperature; 5%. The settings on record: protein: recombinant; tags: N-terminal MBP (pMAL-c5x); chain copies: 2; blunt.

Changes are numbered by the printed parent chain.

B1: AT13 (M. polymorpha Mef2 site) (dsDNA)
DNA 1: GCTGAAGGATCTATATATAGGCGGATCGGC
DNA 2: GCCGATCCGCCTATATATAGATCCTTCAGC
Consider B1, for which the binding result with MBP-SmMef2 [1] is “binds”.

B2: AT14 (Ndt80 MSE negative control) (dsDNA)
DNA 1: GCTGAAGGATGTCACAAAATGCGGATCGGC
DNA 2: GCCGATCCGCATTTTGTGACATCCTTCAGC
Consider B2, for which the binding result with MBP-SmMef2 [2] was “no binding”.

B3: AT11 (Drosophila Actin57B Mef2 site) (dsDNA)
DNA 1: B1 DNA 1 with A15T, A17T
DNA 2: B1 DNA 2 with T14A, T16A
Turning to B3, the binding result in the series with MBP-SmMef2 [1] is “binds”.

B4: AT12 (common Mef2 consensus) (dsDNA)
DNA 1: B1 DNA 1 with T14A, T16A
DNA 2: B1 DNA 2 with A15T, A17T
As to B4, in the series with MBP-SmMef2 [1], the binding result is on record as “binds”.
